Laboratory results published in the NTF2 design screens of Basanta et al. (2020).

assay: protease stability score; higher = more stable; yeast display proteolysis, trypsin and chymotrypsin;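 note: relative to predicted unfolded state with 0 unfolded-like and 1 meaning tenfold more protease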

Q: Which protease stability score does the source give for “DQDDHMAKEFHKLFFDAIRTGDEDLLSMLLDPHVLMNIGNFHRHGRELVVDMQRHLYEKHGFRIHNAHVERWHIFENRLIYHLKVDGKVDGKRHVMEFDLTILKVDGVWIITSITIK” here?
A: 1.44

Q: With “SDAERHSQEVLRLWIKAAKTGDEDKFRNYIDPHVRVEINGKEIHGRDILLEEMRRRDVIRHVRVTDSRHYDGVVIMDVEVDGHVNGRDVETQTTSFIIKIDGKWVWQSFVQI” as the sequence, how does the protease stability score read?
A: 0.98

Q: Which protease stability score does the source give for “DEEHEWMHIMMELLLRAFETGDPDLFEHLADPNTRLQIGDKTIHGRTKVSTWLHREIRRADHLEIRLREYDYQGDKLEMKTELIIQQGDKQVQLETRVIIIKINGRWFLESIEIN” here?
A: 1.23

Q: For “DEDEKLLEKIAREFFEALKTGDEDWLTELADPHVKLDVGEWDTHGMEEIKNVLKILLHELGFKHRELHDMDIVNGVNVIDVIIRINGKERKVTIIIVTIDGRIKSIHHRVN”, which protease stability score is on record?
A: 2.15

Q: With “SEDEFDARLVYKLVLDLLLTGDPDTWRKLFDPNVKINIDGVDYHGMKEFERIVKEIRVIIHDSELHDVETQGDKIIYHGIIDGTYHVNGRTIRERRTFTIIAHKVDGRWILHSISYE” as the sequence, how does the protease stability score read?
A: 1.22

Q: For “SELEEQERTHIHKLMNAIETGDEDLFRRLFDPNVRVDVDGVEFIGREHLLILLRHMRMHARHFKEEDFSVQGDKVHLYGHLDEEIEINGKVTRRHIHVTWVLVKVNGKWVIHSQYVL”, which protease stability score is on record?
A: 1.41

Q: Which protease stability score does the source give for “TEEEDRLREIAELIHKFLTTGDWEKIFRMLDPHVRVEIHVNGRDIIIHGWKNVHRLLEYELEELRFHQSDVHELRVQGDKAHSITEWDGVIDGRRQNLHVNVHFVTVDGRIRSIKFEFR” here?
A: 1.57

Q: Which protease stability score does the source give for “SEDEEMLRLAWEIHREILDTGDWKMFEELADPHTRIEVGEYINVGRETASKFILDNVRKIKNMRLHVHEHRTIDGKLEIHLRVNVNGQHRTLFLFASKFDGVWIITSVVVEIR” here?
A: 1.18

Q: For “SEDEEMIRELAEIFIKNWETGDEEDRWKLMDPNARIEVNGKQNHGREEDERHSKELGFKHIEVRIKRSRIVGDKAEIDGELYMRYDGKTEHVKVHIHVQIVDGRIKIVSFKIR”, which protease stability score is on record?
A: 1.31

Q: With “DEEHKETEDIAKYFWERFLTGDWKTFKEFADPHVKIDVDGVEHIGREEASKLMRDWDRRFKNVRHTERHHDVIDGKFELHGESNINGVHIKLDVRIVIVDGRLHSVHVEIDRR” as the sequence, how does the protease stability score read?
A: 1.26

Q: For “DDREKDSKREVKEFLEMFITGDEERWSKMADPNVRLHFDGVESHGREEALRIMRLLLEQFKNLKVTDVQLTSIEIQGEKALIRTRIHTEVNGKEDSLDVILFATKFDGRWIINSIEIR”, which protease stability score is on record?
A: 1.1

Q: With “DSEHEEAKTFVKELDKSIETGDEEKLKELLDPHTLIIVGDKFRIGWEWMANKISQIRIHMETRIRDVEHQGDKMIVHTDVRIDINVDGKKIHEQRDIHLIIRKVNGQWILKEIEIR” as the sequence, how does the protease stability score read?
A: 1.36

Q: Which protease stability score does the source give for “SDLEEVIRKHIEELEESRRTGDEESLWRLLDPNTLKVVGDKRIHGMEAVAEIETFHDRRVKNATDRLNLREVHTQGDKLTIRGELILDWDGVKINVHVRLEILKFDGRWIIHRIEVK” here?
A: 0.715

Q: For “QDIDHQLERAVKEILETFITGDESLASHLFDPDVRVIQGDKHIHGREEVTKVFYEFVKRADHVEIRMREVESQGDIIDIETELILRIGDKEVRHRVRLIVVKYNGKWHIKSMEVD”, which protease stability score is on record?
A: 2.72

Q: Which protease stability score does the source give for “DEELKALEDLSKKEIEAHLTGDEDTLVQLADPNMKILYNGREFHGWNVWKKISSKMIEEMRLRRVELEHVHVINGQIDSHGILDVEVNGRRVKERMHIVMLKVNGRWLIHSVEYR” here?
A: 1.27

Q: For “DEIEDHMREVREQLLRDLTTGDWKKMREMLDPHVRIHIGDFHDHGRESAEEWLRKFKGLTLRIHDVRVKIIDGRALVENDGELTYDGRRHRVRIHVYVTKVDGVWMVETLEIRIH”, which protease stability score is on record?
A: 1.15

Q: Which protease stability score does the source give for “DEREQEAHRAIEKFMHYVRTGNEDKLKEFLDPNALNLFDGRHDVGREDVTESMIEIMRHLGVTLHDVKITDMRTQGDYLTVNGWFNLEYDGVRDNHKVFIHSRKVDGKWIITKIDWR” here?
A: 1.26

Q: With “SEDEENAERFIQHWVHNMETGNEERLFELADPNVRLDVNGRDLIGREEFQKSMRWLINRVKNITVRVDKVTIQGNKLLVHTEVRVGDKHHETELIFLKVDGRWRIHEMRIV” as the sequence, how does the protease stability score read?
A: 1.52

Q: For “DQREETTNRALHEFIENLITGDEHELLRLLDPNTKMIWNGRENHGWKRAKTVLKEFLERIDVFKDHKLRNMELQGNKAEVEGQVIFEIDGKEVRHDLSLIFLKVDGKWMIESIEIR”, which protease stability score is on record?
A: 1.34

Q: For “HEEERDLEHWDELLLKSITTGDWRILTKLVDPHARIIILVNGKLITHIGREYVYHLLLRFDHIRTHDFRTNIQGDYIDHHIEGKLHVNGKDMDSHIINHSEKVDGRWTVHTVNIEFI”, which protease stability score is on record?
A: 1.22

Q: For “DEINKMLKEVLDRYTEAIRTGDEDILLELLDPNTRVIINGQDKHGREYWYTWFAELLKRVDHQDVRFHEIRLQGDKVQVDVELIFNAENHHLHIRTDIIIEKFDGRWIITEFRMH”, which protease stability score is on record?
A: 1.38

Q: Which protease stability score does the source give for “DEDTEEVRKADKIYIHYLLTGDEHKNNRLADPNVRLHWNGREFHGMELFTEAFREIRHELRFDHITHHHLRMFNGRLDSDTRVDGDINGVRTIFEMKLTLLKVDGRWVLKSTEIR” here?
A: 1.26

Q: Which protease stability score does the source give for “DEDTKVVEEILRLLVEIWKTGDEHTWKRLLDPHARMDVDGRELHGREEIARHVKEETEKLGANVHNHVEIHHMEIIGNKVIIDGTVDGIVNGRITRIRVEVFWLVFDGVIKEEEHRVL” here?
A: 0.955

Q: Which protease stability score does the source give for “SRKDEHTHHLLHLFWEIFMTGDEERWTQLLDPNMRTEIDGKDLHGREDAIRFMIERLRQLGFDHMRLHHLENQGEKAHIDGTLEVGDKLVRVHFSTKIVNGRIKELTIKFH” here?
A: 1.02

Q: Which protease stability score does the source give for “SEYEEFLKEALRILIDDILTGDWRLVYKLFDPETRLNVNGQEIHGRDDVVHHLTHIAREWRMDVKVKEYNVFDGQIHMFGHLQLEFDGREYRRRVELIIIKFNGQWHLRQVVKH” here?
A: 1.58
